According to patent publication US20230190943A1, “ALGINIC ACID DERIVATIVE BONDED TO NONSTEROIDAL ANTI-INFLAMMATORY COMPOUND” (MOCHIDA PHARMACEUTICAL CO., LTD., priority 2018, published 2023):

experiment: Release test of free diclofenac from conjugates in 20 mM sodium phosphate buffer, 37°C (Example 11); assay type: physicochemical; conditions: pH 5.3, 37°C, Day 1, 0.1% w/w conjugate, free diclofenac
Method: (set temperature of air conditioner). After confirming that no gel was formed, this solution was dispensed. Immediately after the dissolution, the amount of free diclofenac present in each solution was measured by LC-MS/MS as an initial state (day 0 of storage). Also, the other dispensed solutions were incubated at 37° C. for 1, 3, and 7 days, and then the amount of free diclofenac was measured. […] The MS conditions are as follows. • Ionization mode: ESI-negative • Ion source temperature: 300 degrees • Capillary voltage: -4000 V

Row | Substance | Release Rate in Release Test at pH 5.3 [%]
1 | Diclofenac-(2-Aminoethanol)-Alginic Acid Derivative [Compound 5a] | 0.0
2 | Diclofenac-(2-Aminoethanol)-Alginic Acid Derivative [Compound 5b] | 0.0
3 | Diclofenac-(2-Aminoethanol)-Alginic Acid Derivative [Compound 5c] | 0.0
4 | Diclofenac-(2-Aminoethanol)-Alginic Acid Derivative [Compound 5d] | 0.0
5 | Diclofenac-(2-Aminoethoxyethanol)-Alginic Acid Derivative [Compound 14] | 0.0
6 | Diclofenac-(3-Amino-2,2-Difluoropropan-1-Ol)-Alginic Acid Derivative [Compound 36] | 0.0
7 | Diclofenac-((4-(Aminomethyl)Phenyl)Methanol)-Alginic Acid Derivative [Compound 28] | 0.0
8 | Diclofenac-(N-(Aminoethyl)-2-Hydroxyacetamide)-Alginic Acid Derivative [Compound 42] | 0.0
9 | Diclofenac-(N-(Aminoethyl)-2-Hydroxypropanamide)-Alginic Acid Derivative [Compound 47] | 0.0

same assay, conditions: pH 5.3, 37°C, Day 3, 0.1% w/w conjugate, free diclofenac

Row | Substance | Release Rate in Release Test at pH 5.3 [%]
10 | Diclofenac-(2-Aminoethanol)-Alginic Acid Derivative [Compound 5a] | 0.1
11 | Diclofenac-(2-Aminoethanol)-Alginic Acid Derivative [Compound 5b] | 0.0
12 | Diclofenac-(2-Aminoethanol)-Alginic Acid Derivative [Compound 5c] | 0.1
13 | Diclofenac-(2-Aminoethanol)-Alginic Acid Derivative [Compound 5d] | 0.1
14 | Diclofenac-(2-Aminoethoxyethanol)-Alginic Acid Derivative [Compound 14] | 0.0
15 | Diclofenac-(3-Amino-2,2-Difluoropropan-1-Ol)-Alginic Acid Derivative [Compound 36] | 0.5
16 | Diclofenac-((4-(Aminomethyl)Phenyl)Methanol)-Alginic Acid Derivative [Compound 28] | 0.1
17 | Diclofenac-(N-(Aminoethyl)-2-Hydroxyacetamide)-Alginic Acid Derivative [Compound 42] | 0.5
18 | Diclofenac-(N-(Aminoethyl)-2-Hydroxypropanamide)-Alginic Acid Derivative [Compound 47] | 0.1

same assay, conditions: pH 5.3, 37°C, Day 7, 0.1% w/w conjugate, free diclofenac

Row | Substance | Release Rate in Release Test at pH 5.3 [%]
19 | Diclofenac-(2-Aminoethanol)-Alginic Acid Derivative [Compound 5a] | 0.2
20 | Diclofenac-(2-Aminoethanol)-Alginic Acid Derivative [Compound 5b] | 0.3
21 | Diclofenac-(2-Aminoethanol)-Alginic Acid Derivative [Compound 5c] | 0.4
22 | Diclofenac-(2-Aminoethanol)-Alginic Acid Derivative [Compound 5d] | 0.4
23 | Diclofenac-(2-Aminoethoxyethanol)-Alginic Acid Derivative [Compound 14] | 0.0
24 | Diclofenac-(3-Amino-2,2-Difluoropropan-1-Ol)-Alginic Acid Derivative [Compound 36] | 1.0
25 | Diclofenac-((4-(Aminomethyl)Phenyl)Methanol)-Alginic Acid Derivative [Compound 28] | 0.3
26 | Diclofenac-(N-(Aminoethyl)-2-Hydroxyacetamide)-Alginic Acid Derivative [Compound 42] | 3.3
27 | Diclofenac-(N-(Aminoethyl)-2-Hydroxypropanamide)-Alginic Acid Derivative [Compound 47] | 0.7

same assay, conditions: pH 7.0

Row | Substance | Release behaviour in the release test at pH 7.0 (in words)
28 | Diclofenac-(2-Aminoethanol)-Alginic Acid Derivative [Compound 5b] | stably released
29 | Diclofenac-(2-Aminoethanol)-Alginic Acid Derivative [Compound 5c] | stably released
30 | Diclofenac-(2-Aminoethanol)-Alginic Acid Derivative [Compound 5d] | stably released
31 | Diclofenac-(N-(Aminoethyl)-2-Hydroxyacetamide)-Alginic Acid Derivative [Compound 42] | stably released
32 | Diclofenac-(N-(Aminoethyl)-2-Hydroxypropanamide)-Alginic Acid Derivative [Compound 47] | stably released

same assay, conditions: pH 7.0, 37°C, Day 1, 0.1% w/w conjugate, free diclofenac

Row | Substance | Release Rate in Release Test at pH 7.0 [%]
33 | Diclofenac-(2-Aminoethanol)-Alginic Acid Derivative [Compound 5a] | 0.2
34 | Diclofenac-(2-Aminoethanol)-Alginic Acid Derivative [Compound 5b] | 0.1
35 | Diclofenac-(2-Aminoethanol)-Alginic Acid Derivative [Compound 5c] | 0.3
36 | Diclofenac-(2-Aminoethanol)-Alginic Acid Derivative [Compound 5d] | 0.2
37 | Diclofenac-(2-Aminoethoxyethanol)-Alginic Acid Derivative [Compound 14] | 0.0
38 | Diclofenac-(3-Amino-2,2-Difluoropropan-1-Ol)-Alginic Acid Derivative [Compound 36] | 1.2
39 | Diclofenac-((4-(Aminomethyl)Phenyl)Methanol)-Alginic Acid Derivative [Compound 28] | 0.1
40 | Diclofenac-(N-(Aminoethyl)-2-Hydroxyacetamide)-Alginic Acid Derivative [Compound 42] | 1.8
41 | Diclofenac-(N-(Aminoethyl)-2-Hydroxypropanamide)-Alginic Acid Derivative [Compound 47] | 0.8

same assay, conditions: pH 7.0, 37°C, Day 3, 0.1% w/w conjugate, free diclofenac

Row | Substance | Release Rate in Release Test at pH 7.0 [%]
42 | Diclofenac-(2-Aminoethanol)-Alginic Acid Derivative [Compound 5a] | 2.3
43 | Diclofenac-(2-Aminoethanol)-Alginic Acid Derivative [Compound 5b] | 2.1
44 | Diclofenac-(2-Aminoethanol)-Alginic Acid Derivative [Compound 5c] | 2.5
45 | Diclofenac-(2-Aminoethanol)-Alginic Acid Derivative [Compound 5d] | 2.4
46 | Diclofenac-(2-Aminoethoxyethanol)-Alginic Acid Derivative [Compound 14] | 0.0
47 | Diclofenac-(3-Amino-2,2-Difluoropropan-1-Ol)-Alginic Acid Derivative [Compound 36] | 8.8
48 | Diclofenac-((4-(Aminomethyl)Phenyl)Methanol)-Alginic Acid Derivative [Compound 28] | 1.2
49 | Diclofenac-(N-(Aminoethyl)-2-Hydroxyacetamide)-Alginic Acid Derivative [Compound 42] | 10.2
50 | Diclofenac-(N-(Aminoethyl)-2-Hydroxypropanamide)-Alginic Acid Derivative [Compound 47] | 6.1

same assay, conditions: pH 7.0, 37°C, Day 7, 0.1% w/w conjugate, free diclofenac

Row | Substance | Release Rate in Release Test at pH 7.0 [%]
51 | Diclofenac-(2-Aminoethanol)-Alginic Acid Derivative [Compound 5a] | 4.1
52 | Diclofenac-(2-Aminoethanol)-Alginic Acid Derivative [Compound 5b] | 5.0
53 | Diclofenac-(2-Aminoethanol)-Alginic Acid Derivative [Compound 5c] | 5.5
54 | Diclofenac-(2-Aminoethanol)-Alginic Acid Derivative [Compound 5d] | 5.1
55 | Diclofenac-(2-Aminoethoxyethanol)-Alginic Acid Derivative [Compound 14] | 0.0
56 | Diclofenac-(3-Amino-2,2-Difluoropropan-1-Ol)-Alginic Acid Derivative [Compound 36] | 12.9
57 | Diclofenac-((4-(Aminomethyl)Phenyl)Methanol)-Alginic Acid Derivative [Compound 28] | 4.0
58 | Diclofenac-(N-(Aminoethyl)-2-Hydroxyacetamide)-Alginic Acid Derivative [Compound 42] | 21.0
59 | Diclofenac-(N-(Aminoethyl)-2-Hydroxypropanamide)-Alginic Acid Derivative [Compound 47] | 10.9
